# T1: human iRhom2 (inactive rhomboid protein 2, isoform 1), endogenously expressed on human cells (human, UniProt Q6PJF5 1-856)
# T1 construct: also called RHBDF2; NP_078875.4
# T1 sequence: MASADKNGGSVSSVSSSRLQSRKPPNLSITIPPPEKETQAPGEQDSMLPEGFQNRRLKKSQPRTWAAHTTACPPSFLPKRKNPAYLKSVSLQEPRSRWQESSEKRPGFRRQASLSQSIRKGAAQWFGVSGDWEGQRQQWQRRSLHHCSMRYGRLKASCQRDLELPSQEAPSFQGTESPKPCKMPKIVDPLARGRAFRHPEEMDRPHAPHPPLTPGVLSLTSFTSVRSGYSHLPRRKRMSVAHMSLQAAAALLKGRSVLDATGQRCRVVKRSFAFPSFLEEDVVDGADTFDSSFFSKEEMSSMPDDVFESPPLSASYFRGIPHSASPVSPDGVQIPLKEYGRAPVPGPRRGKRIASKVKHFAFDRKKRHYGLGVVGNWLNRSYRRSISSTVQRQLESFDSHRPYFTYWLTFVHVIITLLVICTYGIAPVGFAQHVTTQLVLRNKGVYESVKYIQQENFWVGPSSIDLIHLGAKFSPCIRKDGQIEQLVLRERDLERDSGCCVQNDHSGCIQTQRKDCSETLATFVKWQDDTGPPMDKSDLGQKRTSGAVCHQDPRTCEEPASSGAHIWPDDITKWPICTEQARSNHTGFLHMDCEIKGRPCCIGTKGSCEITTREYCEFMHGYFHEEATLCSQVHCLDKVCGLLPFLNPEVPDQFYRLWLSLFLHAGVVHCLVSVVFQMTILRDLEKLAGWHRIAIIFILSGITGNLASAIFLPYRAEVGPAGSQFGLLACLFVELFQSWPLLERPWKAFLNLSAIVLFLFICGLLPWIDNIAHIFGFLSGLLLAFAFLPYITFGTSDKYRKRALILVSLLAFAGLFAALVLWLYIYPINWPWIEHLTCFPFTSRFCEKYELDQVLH
# Molecular target: T1, human iRhom2 (inactive rhomboid protein …)
# Assay: indirect FACS scatchard analysis on THP-1 cells (endogenous iRhom2)
# Protocol: In brief, human THP-1 cells (American Type Culture Collection, USA) were harvested with 10 mM EDTA in PBS, washed and resuspended in FACS buffer (PBS, 3% FBS, 0.05% sodium azide), and seeded in Nunc U-bottom 96-well plates (Thermo Fisher Scientific, USA) at approximately 3×10⁵ cells per well. In order to pellet cells and remove supernatants, the plates were centrifuged at 1,500 rpm and 4° C. for 3 minutes. For primary staining, cells were resuspended in 100 μl per well of either FACS buffer alone (controls) or serial two-fold dilutions (in total 22 concentrations) of the purified antibodies 3, 5, 16, 22, 34, 42, 43, 44, 48, and 50 of the present disclosure in FACS buffer starting at 40 μg/ml and incubated on ice for 1 hour. Afterwards, plates were centrifuged at 1,500 rpm and 4° C. for 3 minutes and washed twice with 200 μl per well of FACS buffer. For secondary staining, cells were spun down and resuspended in 100 μl per well of PE-conjugated goat anti-mouse IgG F(ab′)2 detection fragment (Dianova, Germany) diluted 1:100 in FACS buffer. Protected from light, the cell suspensions were incubated on ice for 1 hour. Plates were then centrifuged at 1,500 rpm and 4° C. for 3 minutes and washed three times with 200 μl per well of FACS buffer. Finally, cells were resuspended in 150 μl per well of FACS buffer and analyzed using a BD Accuri™ C6 Plus flow cytometer (Becton Dickinson, Germany). Applying Prism8 software (GraphPad Sowtware, USA), the respective KD value for each of the antibodies of the present disclosure were calculated.
row,Binder,Kd [nM]
1,"antibody 34 (antibody, V domains shown, Mouse IgG, kappa light chain; also called clone #34; m34) VH: QVTLKESGPGILQPSQTLSLTCSFSGFSLSTFSLGVGWIRQSSGKGLEWLAHIWWDDEKYYNPALKSRLTISKDTSKNQVFLKIANVDAADTATYYCARAYYSKSYYALDYWGQGTSVTVSS VL: DIQMTQSPSSLSASLGERVSLTCRASQEISGYLSWLQQKPDGTIKRLIYAASTLDSGVPKRFSGSRSGSDYSLAISSLESEDFADYYCLQYANFPFTFGSGTKLEIK",1.94
2,"antibody 43 (antibody, V domains shown, Mouse IgG, kappa light chain; also called clone #43) VH: QVALKESGPGILQPSQTLSLTCSFSGFSLSTFGMGVGWIRQSSGKGLEWLANIWWDDDKYYNPALKSRLTISKDASKNQAFLKIANVDTADTATYYCARIGNYGSNYWYFDVWGTGTTVTVSS VL: QIVLTQSPAIMSASPGERVTMTCSANSRISYMYWYQQKPGSSPRLLIYDTSNLASGVPVRFSGSGSGTSYSLTISRMEAEDAATYNCQQWSSYPLTFGAGTKLELK",4.55
3,"antibody 5 (antibody, V domains shown, Mouse IgG, kappa light chain; also called clone #5; purified antibody 5) VH: QVTLKESGPGILQPSQTLSLTCSFSGFSLSTFGMGVGWIRQPSGKGLEWLAHIWWDDEKYYNSALKSRLTISKATSKNQAFLKIANVDTADTATYYCARISNYGSNYWYFNVWGTGTTVTVSS VL: QVVLTQSPALMSASPGEKVTMTCSAGSSVSCMYWYQQKPGSSPRVLIYDTSNLASGVPARFTGSGSGTSYSLTISRMEAEDAASYYCQQWNSYPLTFGAGTKLELK",3.35
4,"antibody 44 (antibody, V domains shown, Mouse IgG, kappa light chain; also called clone #44; m44) VH: QVTLKESGPGILQPSQTLSLTCSFSGFSLSTFGMGVGWIRQPSEKGLEWLAHIWWDDDKYYNPALKSRLTISKDTSKNQIFLKITNVDTAETATYYCSRIGNYGSNYWYFDVWGTGTTVTVSS VL: QIVLTQSPAVMSASPGEKVTMTCTASSSVYYMYWYQQTPGSSPRLLIYDTSNLASGVPVRFSGSGSGTSYSLTISRMEAEDAATYYCQQWNTYPLTFGAGTKLELK",0.44
5,"antibody 42 (antibody, V domains shown, Mouse IgG, kappa light chain; also called clone #42; m42) VH: QVTLKESGPGILQPSQTLSLTCSLSGFSLSTFGRGVGWIRQPSGKGLEWLAHIWWDDEKYYNPALKSRLTISKDTSKNQVFLRIANVDTADTATYYCARIQNYGSNYWYFDVWGTGTTVTVSS VL: LIVLTQSPAIMSASPGEKVTMTCGATSRISYMFWYQQKPGSSPRVLIYDTSNLASGVPVRFSGSGSGTSYSLTISRVEAEDVATYYCQQWNSYPLTFGAGTKLELK",1.9
6,"antibody 22 (antibody, V domains shown, Mouse IgG, kappa light chain; also called clone #22; m22) VH: QVTLKESGPGILQPSQTLSLTCSFSGFSLSTFGMGVGWIRQPSGKGLEWLAHIWWDDEKYYNSALKSRLTISKATSKNQVFLKIANVDTADTATYYCARISNYGSNYWYFNVWGTGTTVTVSS VL: QVVLTQSPALMSASPGEKVTMTCSAGSSVSYMYWYQQKPGSSPRVLIYDTSNLASGVPARFTGSGSGTSYSLTISRMEAEDAATYYCQQWNSYPLTFGAGTKLELK",2.04
7,"antibody 16 (antibody, V domains shown, Mouse IgG, kappa light chain; also called clone #16; m16) VH: QVTLKESGPGILQPSQTLSLTCSFSGFSLSTFALGVGWIRQPSGRGLEWLAHIWWDDDKYYNPALKSRLTISKDTSKNHVFLKIANVDTADTATYYCARITTYYYGMDYWGQGTSVTVSS VL: DIVLSQSPATLSVTPGDSVSLFCRASQSIGNHLHWYQQESHASPRLLIKYASQSISGIPSRFSGSGSGTDFTLSINSVETEDFGMYFCQQSYNWPLTFGAGTKLELK",0.34
8,"antibody 3 (antibody, V domains shown, Mouse IgG, kappa light chain; also called clone #3; purified antibody 3) VH: QVTLKESGPGILQPSQTLSLTCSFSGFSLTTFAMGIGWVRQPSGKGLEWLAHIWWDGEKYNNPVLKSRLTISKDTSKNQVFLRIANVDTPDTATYYCARISSIYYIIDNWGQGTSVTVSS VL: DIVLTQSPATLSVTPGHSVSLSCRASQSISNNLHWYQKKSHESPRLLIKYVSQSISGIPSRFSGSGSGTDFTLSINSVETEDFGMYFCQQSYNWPLTFGAGTKLELK",2.97
9,"antibody 48 (antibody, V domains shown, Mouse IgG, kappa light chain; also called clone #48; purified antibody 48) VH: QVQLQQSGTELVRPGTSVKVSCKASGYAFTNYLIEWVKQRPGQGLEWIGVINPGSGFTKYNEKFKGKATLTADKSSSTVYMHLSSLTSEDSAVYFCARGLYRAMDYWGQGTSVTVSS VL: DIQMTQSPASQSASLGESVTITCLASQTIATWLAWYQQKPGKSPQLLIYGATTLADGVPSRFSGGGSGTKFSFKISSLQAEDFVSYYCQQLYSTPYTFGGGTKLEIK",1.73
10,"antibody 50 (antibody, V domains shown, Mouse IgG, kappa light chain; also called clone #50; purified antibody 50) VH: QVQLQQSGAELVRPGASVKVSCKASGYAFSNYLIEWVKQRPGQGLEWIGVINPGSGFTKYNEKFKGKATLTADKSSSTAYMQLSSLTSEDSAVYFCARGLYRAMDYWGQGTSVTVSS VL: DIQMTQSPASQSASLGESVTITCLASQTIGTWLAWYQQKPGKSPQLLIYAAASLADGVPSRFSGGGSGTKFSFKISSLQAEDFVNYYCQQIYSTPYTFGGGTKLEIK",1.43
